From IntAct's records for PubMed 16284401

B1: Crk-like protein (Rattus norvegicus (Rat)), Q5U2U2 (parent)
chain: MSSARFDSSDRSAWYMGPVSRQEAQTRLQGQRHGMFLVRDSSTCPGDYVLSVSENSRVSHYIINSLPNRRFKIGDQEFDHLPALLEFYKIHYLDTTTLIEPAPRYPNPPMGSVSAPNLSTAEENLEYVRTLYDFPGNDAEDLPFKKGELLVIIEKPEEQWWSARNKDGRVGMIPVPYVEKLVRSSPHGKHGNRNSNSYGIPEPAHAYAQPQTTTPLPTVASTPGAAINPLPSTQNGPVFAKAIQKRVPCAYDKTALALEVGDIVKVTRMNINGQWEGEVNGRKGLFPFTHVKIFDPQNPDDNE
B2: Kinase D-interacting substrate of 220 kDa (Rattus norvegicus (Rat)), Q9EQG6 (parent)
chain: MSVLISQSVINYVEEENIPALKALLEKCKDVDERNECGQTPLMLAAEQGNVEIVKELLKNGANCNLEDLDNWTALISASKEGHIHIVEELLKSGASLEHRDMGGWTALMWACYKGRTDVVELLLSHGANPSVTGLYSVYPIIWAAGRGHADIVHLLLQNGAKVNCSDKYGTTPLVWAARKGHLECVKHLLAMGADVDQEGANSMTALIVAVKGGYTQSVKEILKRNPNVNLTDKDGNTALMIASKEGHIEIVQDLLDAGTYVNIPDRSGDTVLIGAVRGGHVEIVRALLQKYADIDIRGQDNKTALYWAVEKGNATMVRDILQCNPDTEICTKDGETPLIKATKMRNIEVVELLLDKGAKVSAVDKKGDTPLHVAIRGRSRRLAELLLRNPKDGRLLYRPNKAGETPYNIDCSHQKSILTQIFGARHLSPTETDGDMLGYDLYSSALADILSEPTMQPPICVGLYAQWGSGKSFLLKKLEDEMKTFAGQQTEPLFQFSWLIVFLTLLLCGGLGLVFAFTVDTNLAIAISLSFLALIYIFFIVIYFGGRREGESWNWAWALSTRLARHIGYLELLFKLMFVNPPELPEQTTKALPVRFLFTDYNRLSSVGGETSLAEMIATLSDACEREFGFLATRLFRVFRTEESQGKKKWKKTCCLPSFVIFLFIVGCIIAGITLLAIFRVDPKHLTVNAILISIASVVGLAFVLNCRTWWQVLDSLLNSQRKRLHSAASKLHKLKSEGFMKVLKCEVELMARMAKTIDSFTQNQTRLVVIIDGLDACEQDKVLQMLDTVRVLFSKGPFIAIFASDPHIIIKAINQNLNSVLRDSNINGHDYMRNIVHLPVFLNSRGLSNARKFLVTSATNGDITCSDTTGTQEDTDRRVSQNSLGEMTKLGSKTALNRRDTYRRRQMQRTITRQMSFDLTKLLVTEDWFSDISPQTMRRLLNIVSVTGRLLRANQITFNWDRLASWINLTEQWPYRTSWLILYLEETEGLPDQMTLKTIYERISKNIPTTKDVEPLLEIDGDIRNFEVFLSSRTPVLVARDVKTFLPCTVNLDPKLREIIADVRAAREQINIGGLAYPPLPLHEGPPRPPSGYSQPASVCSSASFNGPFPGGVVSPQPHSSYYSGLSGPQHPFYNRPFFAPYLYTPRYYPGGSQHLISRSSVKTSLPRDQNNGLPCDSGFNKQRQAAVPATGSSLLLSSMTVDVVCEKLRQIEGLDQSMMPQYCTTIKKANINGRVLSQCNIDELKKEMAMNFGDWHLFRSMVLEMRSVESQVVPEDPRFLNENSSAPVPHGESARRSSHTELPLTELSSQTPYTLNFSFEELNTLGLDEGAPRHSNLSWQSQTRRTPSLSSLNSQDSSIEISKLTDKVQAEYRDAYREYIAQMSQLEGGTGSSTISGRSSPHSTYYIGQSSSGGSIHSTLEQERGKEGELKQEDGRKSFLMKRGDVIDYSSSGVSTNEASPLDPITEEDEKSDQSGSKLLPGKKSSERPSLFQTDLKLKGGGLRYQKLPSDEDESGTEESDNTPLLKDDKDKKAEGKAERVCKSPEHSAEPIRTFIKAKEYLSDALLDKKDSSDSGVRSNESSPNHSLHNEAADDSQLEKANLIELEDEGHSGKRGMPHSLSGLQDPIIARMSICSEDKKSPSECSLIASSPEESWPACQKAYNLNRTPSTVTLNNNTAPTNRANQNFDEIEGIRETSQVILRPGPSPNPTAVQNENLKSMAHKRSQRSSYTRLSKDASELHAASSESTGFGEERESIL

Variants of: B1
Settings: with kdis_rat Kidins220, Q9EQG6

Variant	effect of a mutation on the interaction
R39N	decreasing interaction

Variants of: B2
Settings: with crkl_human CRKL

Variant	effect of a mutation on the interaction
Y1095F	decreasing interaction

Variants of: B2
Settings: with crkl_rat Crkl, Q5U2U2

Variant	effect of a mutation on the interaction
Y1095F	decreasing interaction
